Patent US20210032312A1 (Janssen / Centocor, published 2021)
Numbering of substitutions follows the chain as printed.

B1: P283HR7P1368_G11 (designed binder)
chain: LPAPKNLVVSRVTEDSARLSWTAPDAAFDSFGIGYAEPAVTGEAISLSVPGSERSYDLTGLKPGTEYWVVIIGVKGGINSYPLGASFTT
notes: FN3 domain
B2: P283HR7P1368_C3 (designed binder)
chain: B1 chain with E53K
notes: FN3 domain
B3: P283ER9P1365_B6 (designed binder)
chain: B1 chain with A39V, S86I
notes: FN3 domain
B4: P283HR7P1368_D1 (designed binder)
chain: LPAPKNLVVSRVTEDSARLSWTAPDAAFDSFGISYYEWAPNGEAIQLSVPGSERSYDLTGLKPGTEYHVVIIGVKGGEPSHPLGAPFTT
notes: FN3 domain
B5: P283ER9P1365_G3 (designed binder)
chain: B4 chain with P86I
notes: FN3 domain
B6: P283HR7P1368_B12 (designed binder)
chain: B4 chain with S34G, Y36V, W38F, A39T, P40R, N41A, Q46S
notes: FN3 domain
B7: P283HR7P1368_H1 (designed binder)
chain: B4 chain with S34A, Y36I, W38T, P40R, N41W, Q46S, S48T, H68N, E78T
notes: FN3 domain
B8: P283GR7P1367_H8 (designed binder)
chain: LPAPKNLVVSRVTEDSARLSWTAPDAAFDSFSINYWEEDPAGEAIVLTVPGSERSYDLTGLKPGTEYRVLIGGVKGGHGSLPLSAIFTT
notes: FN3 domain
B9: P283HR7P1368_A10 (designed binder)
chain: LPAPKNLVVSRVTEDSARLSWTAPDAAFDSFWIFYLEPFPRGEAIPLEVPGSERSYDLTGLKPGTEYSVDIRGVKGGDHSDPLWAYFTT
notes: FN3 domain
B10: P283GR7P1367_E5 (designed binder)
chain: LPAPKNLVVSRVTEDSARLSWTAPDAAFDSFEIWYHEYHPRGEAIVLTVPGSERSYDLTGLKPGTEYDVVISGVKGGHWSYPLSAIFTT
notes: FN3 domain
B11: P283GR7P1367_G8 (designed binder)
chain: LPAPKNLVVSRVTEDSARLSWTAPDAAFDSFYIAYPEYVWGGEATSLGEAIVLTVPGSERSYDLTGLKPGTEYFVVITGVKGGLGSYPLSAIFTT
notes: FN3 domain

Experiments:
[1] = target: T1, human CD8 alpha (CD8A) on primary human CD8+ T cells (human, UniProt P01732 22-235); experiment: flow cytometry, human CD8+ T cells
T1 construct: whole, on cells; also called hCD8A

[2] = target: T2, cynomolgus monkey CD8 alpha on primary cynomolgus CD8+ T cells (cynomolgus monkey, UniProt P01732 23-235 (human entry)); experiment: flow cytometry, cyno CD8+ T cells
T2 construct: also called Cyno CD8alpha; cyno CD8A

human CD8A-Fc (in house) = target: T3, human CD8A-Fc (in house) (human, UniProt P01732 22-182, limits assumed); experiment: SPR (ProteOn), captured hCD8A-Fc
T3 construct: captured by goat anti-human Fc on the ProteOn chip; also called hCD8A-Fc; recombinant human CD8 alpha; not shown: linker/tag and Fc of human IgG1
T3 sequence (P01732 22-182 limits assumed): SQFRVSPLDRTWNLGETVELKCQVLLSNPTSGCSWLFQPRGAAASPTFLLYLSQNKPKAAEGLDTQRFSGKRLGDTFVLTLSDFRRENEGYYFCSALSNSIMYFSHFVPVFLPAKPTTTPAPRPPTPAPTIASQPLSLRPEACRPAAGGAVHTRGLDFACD

T2 sequence (P01732 other isoform, or with tags, fused parts or gaps limits assumed): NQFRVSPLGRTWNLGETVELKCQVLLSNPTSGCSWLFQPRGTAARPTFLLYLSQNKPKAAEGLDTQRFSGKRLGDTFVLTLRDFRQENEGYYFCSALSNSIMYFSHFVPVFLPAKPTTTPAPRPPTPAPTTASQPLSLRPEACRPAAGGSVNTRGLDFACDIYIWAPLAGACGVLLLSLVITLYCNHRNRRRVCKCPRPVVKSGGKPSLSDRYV
T1 sequence (P01732 22-235): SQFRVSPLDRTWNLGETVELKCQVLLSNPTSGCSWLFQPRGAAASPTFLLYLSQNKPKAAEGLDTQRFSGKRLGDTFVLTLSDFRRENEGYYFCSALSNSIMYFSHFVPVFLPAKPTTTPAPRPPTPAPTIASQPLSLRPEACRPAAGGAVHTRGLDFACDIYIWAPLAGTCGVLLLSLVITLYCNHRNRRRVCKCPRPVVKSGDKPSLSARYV

| Binder | Human T-cell Binding 0.2 uM (MFI) [1] [MFI] | Human T-cell Binding 2 uM (MFI) [1] [MFI] | Cyno T-cell Binding 0.2 uM (MFI) [2] [MFI] | Cyno T-cell Binding 2 uM (MFI) [2] [MFI] | koff (human CD8A-Fc (in house)) [s⁻¹] |
| --- | --- | --- | --- | --- | --- |
| B1 | 2650 | 19300 | 1340 | 14900 | 0.000373 |
| B2 | 2220 | 12700 | 1310 | 13300 | 0.000349 |
| B3 | 3400 | 23000 | 2690 | 30100 | 0.000288 |
| B4 | 2310 | 14100 | 1410 | 7850 | 0.00166 |
| B5 | 2920 | 12500 | 1470 | 3480 | 0.0025 |
| B6 | 1540 | 13400 | 826 | 18600 | 4.53e-05 |
| B7 | 2460 | 15400 | 1970 | 17300 | 0.000552 |
| B8 | 303 | 5270 | 930 | 20900 | 0.00974 |
| B9 | 3230 | 13600 | 4770 | 42300 | 0.000513 |
| B10 | 1330 | 10000 | 533 | 3190 | 0.00124 |
| B11 | 450 | 1460 | 1420 | 21000 | 0.00385 |
